Experimental data published in the domain aggregation screens of Martell et al. (2025).

Assay: soluble fraction after stress (log2 fold change); higher = more stays soluble; pooled small domains, quantitative proteomics
Details: stress: 50 degC
Outline: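 After stress at 50°C, the amount of each protein still soluble was measured. This was done on pooled custom libraries of small protein domains, using high-throughput quantitative proteomics. The figure given is a base-two log fold change and stands for aggregation propensity, with higher values meaning more protein stays in solution.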

Row | Sequence | soluble fraction (log2)
1 | HMSEPTLESLRAEGAHHYDPARFHYLEVLARRMPGQHAAVQQVLASRLREAVAAYAGRRSLI | -0.126
2 | HMAEEFESMTEARRLELARLVDSRGFVRVTDAAEELGVSDVTIRGDLSELERRGLLTRVHGGAMPVT | 0.0215
3 | HMKMATITKRTNPSGAVVYRAQVRVKREGYPPYSESRTFSKKSLATEWAKRREFEIETNPDLLFN | -1.26
4 | HMSSEDTQSRDRARKELSNEMSRIMKRYGLDYQPRDNADDIMNRLKAAGADENTLAYVQEKLK | 0.134
5 | HMPTITSPMVGTFYRAPSPGAAPFIEVGDTVKKGQVIGIIEAMKLLNEVEADKDGVVQAFAAENGEL | 0.262
6 | HMQQPVVVQQNQTVRVVTGGPGFQVANEGRALNNGLAGQVVQVRLGNGQIISGIARAGGIVEIL | 0.0705
7 | HMGVTGYPNPTREHITWDDARRIEVWNAYGVPVADLRFARGVLDVAGWPVGTYVARIDGGRSVRFVVI | -0.19
8 | HMPSDLQATLRAVQGMLQGVEGVDARLAGQRILLEGDSADARARERAAAIAGIFPGVVIDFVG | -0.155
9 | HMRTDQYHYLAWKQVADELGIPFDEQVNERLRGVSRMASFDIILERYDGTMSDEEKIHWTDKKNEIYKSM | -0.948
10 | HMTKSIDFDFREDGVYIKADKDVTIVDIVTKIDLRRIQSVDLTKIKQMLEIGSLDNWIKIAEPQMEK | 0.0472
11 | HMNSVSIAPEMLNWVIAHIQMNSLPKQIVEHLTAWISGQKEPTFNQIEKVSRATGIPLGYFFLEQPPKE | -2.03
12 | HMANILKHKNKDGVITSYTIRVYHGYDEAGKRLRPYTMNYKPAPNMTARQIEKELNRQAVQFEEQIKNGYA | -0.699
13 | HMAPDGIEDKEGWLKVLPMITNLSIQMQNLQARGMDYEHIRNLLHETLLRYDDRIDSNLFIPNV | 4.47e-05
14 | HMQGEDEILKIHEALEELAQIDARLVRVVEMRYFVGLSNQEIADSLGVTTRTVERDWEKARTFLFNALHP | -1.4
15 | HMDGVYLKSLKQTEQHIHWSGYAQSNAWVSTLMRNLDASPWFESPLLIEIKAATINNSRSNEFDLNVRL | 0.0711
16 | HMTSSKISFIDPVNGGKVSVSLENSTLEKLQNRFGVNSVVRNEAGDVELKDKAQEFVAGWFADIAYTRG | 0.0813
17 | HMVPTYEAYVGKEGLVVGTLRPAGTAEFDGERLDVVSEGEYLEAGTRVQIVRTEGRRIVVRKIN | 0.0504
18 | HMTISDEAMQAGRDAFIQALVAMGAEKNADAMASIEKALSADPGNKEYLATRDLIKKSMGMKK | 0.44
19 | HMENEFEAYSDGSSIQLNDPSKATYVVFDRQGRLLHLFQNHSLSSLSIERKNQILIITRETADGVSVKKIV | -0.415
20 | HMSERVVVPDLTGKDLVAAQSELREISLAGREEGPGDKVRRQFPVAGVKVPKDTVVILYTED | 0.125
21 | HMVLALRGIVQGGAEPLVILSDGRTSQSLAVGERFLAYEVVEIGRTGVRLRGPEGEIWLAMASF | -0.322
22 | HMENDPYEILGIARSASDDEIKAKYRALTRENHPDILMAKGVPQEFIDLANEKMAVINAAYDKIEKER | 0.292
23 | HMATYNEVLKRLIEERKRLGLSQQEMARLVHITQSNYSKVEKGLHRLSYEELKYLSKANVDIFYILT | 0.136
24 | HMGSLKEKIVLLEKLYQQNPSEEIKLLLINTYQLNHQYIQARKLFFTLTPEQKEKLPLASEFLIFL | -0.871
25 | HMSSQGQNTKTGTVTASALYVRSGAGTNYSQIGYLLKNTKVEIVGQTGSWYKIKFGSGTGYVSSKYIK | -0.652
26 | HMSWNIHEAVEYYKGQDAPQNQFALVELLKEVQEHNGGVLTDIAVEEIAALLNTKVTFLNAVIKRYPSLK | -0.287
27 | HMWMTAQDFRNSSLPWSATTSYNEGQSVRVVDGSNTYYYIAIVKTQPGQSPTTHPTSWREVDA | -0.99
28 | HMEREQPFAVTEAYRGMRLDRFLQAMLPRMSRAAIQDAIDNRVRLGSGRAAKASLRPAIGDTVFFGQRI | -0.822

Row | Sequence | soluble fraction (log2)
29 | HMSADDSDDRKGIDAWLTQLLANGSVKATEVYSAADAAGYSKDQAKRAKRRLAIEAVREAMDGPWFWRLD | -0.616
30 | HMFNISEKLKKYRNALGLTQTEVAEKIEITKPTYASYEKGKDISIGTLKKLADLFEVSFESFFSE | -0.168
31 | HMSGYFSDKKLNELFEQYLIMREKKGKPVVGYQLKILIDRLNQVAANTKEKIEVVSNAIAGDWNTFYPIKR | -0.621
32 | HMSSEITYDKFIEMVDKDQVKEVTLQSGVLTVVPKIQKSYYQNASYKVNQMEDVDALTKRLEGTGIVFHY | -0.0487
33 | HMGGFSVTAEAFDGTPEVGKTVGFTAGSTKIKVEDTKGDATFGTILEKETVGFGEGKYTYFYIGL | -0.223
34 | HMKELVAGQTVRVHHSIGFGQTGTVTALNSLKTTLPNGLRTNTASILFQNNEKVVLPISNFDIIES | -0.139
35 | HMEGNFFADIRQELMRELDQEAEWSDVQILEKIDDLVLLRTRRSSLTVNEKEQLRKELFYSVRK | -0.0909
36 | HMDADTVGQIRVVKQILDDGRLIVVDASGNPVLVRRSSALSLTAISQGDRIIVDPSVRLAIELLPNE | 0.185
37 | HMGAAVEVISLRYRSAAELLPIVRSLLSTEGKISADERTNSLIIVDSDEAVARVIHSLATLDT | -0.125
38 | HMEEPEELYRVKILIYNLLVRNGPGILYTRLRRADYPGEYGIYEEKNGYGKISATLSEWISLNTEYVQRLD | -2
39 | HMAVDVNKATAAELDSIKGIGPAISAKILEEKKKGGNFKDWNDLVTRVSGVGEANAAKFSSEGLTVGGAS | 0.0629
40 | HMSGKWKIRILWYIAEYEVQRFGELRRRLGDITQSTLTEQLRELEQDGFVSRYVYQEVPSKVEYSLTE | 0.143
41 | HMQAATGVVTASVLNIRQGPGTNYTKVGSLLKGAQVEIVGQNGAWSKIRLKSGITGWVNSSYLKTST | -0.0664
42 | HMALWFDEWKKYQDTIASADLLPDKAERDALIAQAEDRFNYWMDIYPRSASLNHSFDDLYEEHRRKIE | -0.75
43 | HMGGEGQIEIREREGIPAEAWVDGVMRGQTPLRVEHVSIGTRRVELRAEGRPPVAADVLVRPTVTALVELS | 0.271
44 | HMELNGVSETAKSVYSIILNNSSTVDDIVIKTKLPAAKVMQALTELELNDAVERKSGGVYALP | 0.13
45 | HMSPFAHHLHELRMRHGIRQNELAELIGYDQTYISALEVGLKGPPTPEFVDKLVEGLALSRTEEAALRSAA | -0.482
46 | HMVSVLDHIVGIGAKRRQSLWNHFGTIDKIKAASIDELLKAPGMNRPSAEAVYYFFEAQRQLRGK | -0.744
47 | HMAFDYETYQLTSREFSIIELVADGRSNREIAEALYLGEGTVRNYLSSILEKLELRDRTQLAVFFYQHL | -2.3
48 | HMDGIDALEPLMRRVFEALPQRRSMTIERAAVAAGLDEESVKIALVRLQLEGYVANDERGWHRSKSPH | -0.911
49 | HMTKAEVLLDLQQRIISEEFLPGSWLVERDLSSEYGLSRTPIREILNKLVILGLISVQKNRGYQVR | -1.43
50 | HMTKMTPNRQLVLSVLQSSGKPLSAYELLDRLREQGTQWQPPTAYRALDYLVEQGLAHYLQSIQKYV | -1.1
51 | HMSKEEAIQAMKEGKKVTHRFFSSDEWMTIENGFLLLEDGVRISLEDFFNFRSDSLWDNGYELYNPH | -0.162
52 | HMEKLIRIKRLIKQLNEYRDSYYNEARPVVSDAAYDKLFDELSELEKETGVVYANSPTQTVG | -0.149
53 | HMPFDWSAFDWKGWADEALAIIKTANQDQMNKWTEDNEKIIVQAETAAPDIYKTVGDEYDKKMESFN | 0.11
54 | HMFTIGENIRDLRLERAITQEQLAEQLNVSAPAVSKWERGEAYPDITLVPKLAEILGVSTDKLFGVD | -0.0643
55 | HMDNEIRIPLPSLQRDGFSIGTREDDGSQLVRIMSAGSFGGMIRSFRLPEGMRIEGAKWEGEIVSIRL | 0.0774
